Results: patent publication US20220119534A1 (DRAGONFLY THERAPEUTICS, published 2022)

Legend:
[1] = biological target: T1, recombinant cynomolgus CD16 (cynomolgus monkey, UniProt Q8SPW2 17-208, biotinylated); assay: SPR 25C, steady state, average
T1 construct: also called cFcγRIII; cyno CD16
Text: Human and cyno CD64, high and low affinity alleles of CD16a (V158 and F158, respectively), two alleles of CD32a (H131 and R131), CD16b, CD32b and cynomolgus CD16 were captured via biotin on a primed Biacore chip, prepared according to the manufacturer's instructions.

[2] = biological target: T2, recombinant cynomolgus FcRn (cynomolgus monkey, UniProt Q8SPV9 24-297; Q8SPW0 21-119); assay: SPR 25C, pH 6.0, steady state, average; pH 6.0; average of four replicates
T2 construct: also called cFcRn; cyno FcRn
T2 sequence (Q8SPV9 24-297 limits assumed, chain 1 of 2): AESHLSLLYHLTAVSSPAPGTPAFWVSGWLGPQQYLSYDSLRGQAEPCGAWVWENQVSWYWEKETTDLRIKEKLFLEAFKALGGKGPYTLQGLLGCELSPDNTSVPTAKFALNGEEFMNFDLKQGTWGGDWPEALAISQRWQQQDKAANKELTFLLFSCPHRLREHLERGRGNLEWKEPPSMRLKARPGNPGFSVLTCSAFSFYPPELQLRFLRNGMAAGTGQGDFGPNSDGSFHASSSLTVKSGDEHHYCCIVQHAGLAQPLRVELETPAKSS
T2 sequence (Q8SPW0 21-119 limits assumed, chain 2 of 2): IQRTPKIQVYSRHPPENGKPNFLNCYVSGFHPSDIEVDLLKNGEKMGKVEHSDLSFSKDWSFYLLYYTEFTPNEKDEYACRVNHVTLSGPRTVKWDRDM
Experimental: Each FcRn binding experiment consisted of multiple cycles utilizing varying concentrations of analytes. […] As no-signal, negative controls, a 0 nM blank cycle was placed at the start of each concentration series, and a blank amine coupling modified chip surface lacking FcRn were used. Each experimental cycle included association, dissociation, and regeneration steps. The association step consisted of 60 sec analyte injection and was followed by a 60 sec dissociation step. Surface regeneration (60 sec injection of HBS-EP+ buffer, pH 7.4) completed each kinetic cycle. All steps were executed at a flow rate of 30 μL/min and at 25° C. MBS-EP+ buffer, pH 6.0 was used as a running buffer. The data were fitted to a steady state affinity model with Biacore Insight evaluation software. Chi² (calculated by the software) related to the calculated Rₘₐₓ was used to assess goodness of the fit.

BCMA = biological target: T3, BCMA; assay: SPR specificity test
T3 chain: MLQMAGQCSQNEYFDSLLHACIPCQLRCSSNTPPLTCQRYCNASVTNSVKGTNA

HER2 = assay: SPR specificity test

T1 sequence (Q8SPW2 17-208 limits assumed): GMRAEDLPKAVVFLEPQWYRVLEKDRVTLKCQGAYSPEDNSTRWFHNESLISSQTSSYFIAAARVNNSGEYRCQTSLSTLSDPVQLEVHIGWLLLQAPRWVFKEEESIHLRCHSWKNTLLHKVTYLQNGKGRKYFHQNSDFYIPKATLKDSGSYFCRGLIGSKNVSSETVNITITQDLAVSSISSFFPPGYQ

Kd [1]: 0.306 µM | Kd [2]: 1.3 µM | binding result (BCMA): no binding (tested: 500 nM) | binding result (HER2): no binding (tested: 500 nM)
B1: F3'-1602 TriNKET (other)
chain: QLQLQESGPGLVKPSETLSLTCTVSGFSLTNYGLHWIRQPPGKCLEWIGVIWSGGKTDYNPSLKSRVTISKDTSKNQFSLKLSSVQAADTAVYYCAKYDYDDSLDYWGQGTLVTVSSGGGGSGGGGSGGGGSGGGGSDIQMTQSPSSLSASVGDRVTITCHASQNINFWLSWYQQKPGKAPKLLIYEASNLHTGVPSRFSGSGSGTRFTLTISSLQPEDIATYYCQQSHSYPLTFGCGTKLEIKGSDKTHTCPPCPAPELLGGPSVFLFPPKPKDTLMISRTPEVTCVVVDVSHEDPEVKFNWYVDGVEVHNAKTKPREEQYNSTYRVVSVLTVLHQDWLNGKEYKCKVSNKALPAPIEKTISKAKGQPREPRVYTLPPCRDELTKNQVSLTCLVKGFYPSDIAVEWESNGQPENNYKTTPPVLVSDGSFTLYSKLTVDKSRWQQGNVFSCSVMHEALHNHYTQKSLSLSPG
heavy: EVQLVESGGGLVKPGGSLRLSCAASGFTFSSYSMNWVRQAPGKGLEWVSSISSSSSYIYYADSVKGRFTISRDNAKNSLYLQMNSLRAEDTAVYYCARGAPIGAAAGWFDPWGQGTLVTVSSASTKGPSVFPLAPSSKSTSGGTAALGCLVKDYFPEPVTVSWNSGALTSGVHTFPAVLQSSGLYSLSSVVTVPSSSLGTQTYICNVNHKPSNTKVDKKVEPKSCDKTHTCPPCPAPELLGGPSVFLFPPKPKDTLMISRTPEVTCVVVDVSHEDPEVKFNWYVDGVEVHNAKTKPREEQYNSTYRVVSVLTVLHQDWLNGKEYKCKVSNKALPAPIEKTISKAKGQPREPQVCTLPPSRDELTENQVSLTCLVKGFYPSDIAVEWESNGQPENNYKTTPPVLDSDGSFFLYSWLTVDKSRWQQGNVFSCSVMHEALHNHYTQKSLSLSPG
light: DIQMTQSPSSVSASVGDRVTITCRASQGISSWLAWYQQKPGKAPKLLIYAASSLQSGVPSRFSGSGSGTDFTLTISSLQPEDFATYYCQQGVSFPRTFGGGTKVEIKRTVAAPSVFIFPPSDEQLKSGTASVVCLLNNFYPREAKVQWKVDNALQSGNSQESVTEQDSKDSTYSLSSTLTLSKADYEKHKVYACEVTHQGLSSPVTKSFNRGEC
notes: CLEC12A scFv-Fc, NKG2D A49MI Fab-Fc, human IgG1 Fc; also called AB0237
